Assay results: the supplement of paper PMC9233669
Fewer inactive variants are shown than the library holds.

Key:
[1] = tested on: biotinyl-Phe-oxazolone; assay: self-aminoacylation, catalytic enhancement (BFO) (fold over background); higher = more active; k-Seq, kA / k0A0; sequences stand for … in GGGAAUGGAUCCACAUCUACGAAUUC…UUCACUGCAGACUUGACGAAGCUG
Outline: (§1)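 Mutagenized RNA pools (0.43 μM; 21-nt variable region) were treated with 2–1250 μM of each biotinyl-aminoacyl-oxazolone. Conditions were 50 μL HEPES/NaCl/KCl/MgCl2/CaCl2 buffer, 5% acetonitrile, pH 6.9–7.0, room temperature, 90 minutes. Catalytic enhancement, the median kA relative to the uncatalyzed rate, was derived from streptavidin capture, qPCR and Illumina sequencing.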

[2] = tested on: biotinyl-Ile-oxazolone; assay: self-aminoacylation, catalytic enhancement (BIO) (fold over background); higher = more active; k-Seq, kA / k0A0; sequences stand for … in GGGAAUGGAUCCACAUCUACGAAUUC…UUCACUGCAGACUUGACGAAGCUG
Outline: as §1

[3] = tested on: biotinyl-Met-oxazolone; assay: self-aminoacylation, catalytic enhancement (BMO) (fold over background); higher = more active; k-Seq, kA / k0A0; sequences stand for … in GGGAAUGGAUCCACAUCUACGAAUUC…UUCACUGCAGACUUGACGAAGCUG
Outline: as §1

[4] = tested on: biotinyl-Val-oxazolone; assay: self-aminoacylation, catalytic enhancement (BVO) (fold over background); higher = more active; k-Seq, kA / k0A0; sequences stand for … in GGGAAUGGAUCCACAUCUACGAAUUC…UUCACUGCAGACUUGACGAAGCUG
Outline: as §1

[5] = tested on: biotinyl-Leu-oxazolone; assay: self-aminoacylation, catalytic enhancement (BLO) (fold over background); higher = more active; k-Seq, kA / k0A0; sequences stand for … in GGGAAUGGAUCCACAUCUACGAAUUC…UUCACUGCAGACUUGACGAAGCUG
Outline: as §1

[6] = tested on: biotinyl-Trp-oxazolone; assay: self-aminoacylation, catalytic enhancement (BWO) (fold over background); higher = more active; k-Seq, kA / k0A0; sequences stand for … in GGGAAUGGAUCCACAUCUACGAAUUC…UUCACUGCAGACUUGACGAAGCUG
Outline: as §1

Sequence | self-aminoacylation [1] | self-aminoacylation [2] | self-aminoacylation [3] | self-aminoacylation [4] | self-aminoacylation [5] | self-aminoacylation [6]
AUUACCCUGGUCCUCGAGUAA [Fam2.1 aminoacylation ribozyme variant] | 0.542 | 1.35 | 0.966 | 1.36 | 1.33 | 1.64
AUUACCCUGGUCCUCGAGUGA [Fam2.1 aminoacylation ribozyme variant] | 6.54 | 2.07 | 3.43 | 2.24 | 3.55 | 3.77
AUUACCCUGGUCCUCGAGUGU [Fam2.1 aminoacylation ribozyme variant] | 2.62 | 1.59 | 2.78 | 1.73 | 3.22 | 3.02
AUUACCCUGGUCGUCGGGUGA [Fam2.1 aminoacylation ribozyme variant] | 26.3 | 2.86 | 3.87 | 2.98 | 4.72 | 5.14
AUUACCCUGGUCUUCGACUGA [Fam2.1 aminoacylation ribozyme variant] | 0.68 | 0.992 | 0.832 | 0.737 | 0.717 | 0.675
AUUACCCUGGUGAACGAGUGA [Fam2.1 aminoacylation ribozyme variant] | 2.79 | 1.42 | 2.47 | 1.65 | 2.25 | 2.82
AUUACCCUGGUGAUCAAGUGA [Fam2.1 aminoacylation ribozyme variant] | 8.79 | 1.81 | 3.19 | 1.92 | 3.25 | 4.2
AUUACCCUGGUGAUCGAAUGA [Fam2.1 aminoacylation ribozyme variant] | 0.432 | 0.957 | 0.846 | 1.09 | 1.02 | 0.949
AUUACCCUGGUGAUCGAGUGA [Fam2.1 aminoacylation ribozyme variant] | 25.1 | 2.56 | 5.19 | 2.69 | 5.14 | 5.95
AUUACCCUGGUGAUCGAGUGG [Fam2.1 aminoacylation ribozyme variant] | 3.23 | 1.11 | 1.79 | 1.26 | 1.63 | 1.82
AUUACCCUGGUUAUCGAGUUA [Fam2.1 aminoacylation ribozyme variant] | 0.868 | 0.945 | 1.15 | 0.885 | 1.01 | 0.319
AUUACCCUGGUUAUCGUGUGA [Fam2.1 aminoacylation ribozyme variant] | 15 | 1.27 | 2.4 | 1.49 | 2.3 | 2.76
AUUACCCUGGUUAUUGAGUGA [Fam2.1 aminoacylation ribozyme variant] | 102 | 6.24 | 14.4 | 6.4 | 15.1 | 17.8
AUUACCCUGUUCAUAGAGUGA [Fam2.1 aminoacylation ribozyme variant] | 110 | 6.48 | 15.6 | 6.44 | 14.6 | 18
AUUACCCUGUUGAUCGAGUGA [Fam2.1 aminoacylation ribozyme variant] | 78.3 | 5.62 | 12.5 | 5.71 | 13 | 16.8
AUUACCCUUGGCAUCGAGUGA [Fam2.1 aminoacylation ribozyme variant] | 31.7 | 2.75 | 6 | 3.39 | 6.72 | 8.88
AUUACCCUUGUCAUCGAGUAA [Fam2.1 aminoacylation ribozyme variant] | 0.935 | 1.19 | 1.36 | 1.13 | 1.22 | 1.53
AUUACCCUUGUCAUCGAGUCA [Fam2.1 aminoacylation ribozyme variant] | 0.6 | 0.895 | 0.756 | 0.841 | 0.708 | 0.591
AUUACCCUUGUCAUCGAGUGG [Fam2.1 aminoacylation ribozyme variant] | 1.98 | 1.25 | 2.03 | 1.54 | 1.85 | 1
AUUACCCUUGUCAUCGAGUGU [Fam2.1 aminoacylation ribozyme variant] | 8.43 | 1.71 | 2.89 | 2.03 | 3.08 | 3.65
AUUACCGGGGUCAUCGAGUGA [Fam2.1 aminoacylation ribozyme variant] | 33.8 | 3.48 | 5.81 | 3.67 | 6.14 | 6.27
AUUACCGUGGGCAUCGAGUGA [Fam2.1 aminoacylation ribozyme variant] | 34.7 | 3.09 | 5.35 | 3.22 | 6.2 | 5.68
AUUACCGUGGUCAUCGACUGA [Fam2.1 aminoacylation ribozyme variant] | 0.518 | 1.06 | 0.911 | 1.11 | 0.742 | 0.507
AUUACCGUGGUCAUCGAGUGA [Fam2.1 aminoacylation ribozyme variant] | 35.1 | 3.39 | 6.27 | 3.68 | 6.4 | 7.62
AUUACCGUGGUCAUCGAGUGC [Fam2.1 aminoacylation ribozyme variant] | 2.57 | 0.895 | 0.762 | 1.05 | 1.08 | 1
